Measured values as given in the supplement of paper PMC10567573.

B1: HMOX1 (parent)
chain: YHIYVALEEEIERNKESPVFAPVY

Variants of: B1
Assay: protein stability index of a GFP-peptide fusion (GPS, HEK-293T) (PSI 1-6); higher = more stable
Details: c terminus: a fixed tail appended
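Also: lentivirally expressed fusions sorted by FACS into six bins by GFP to DsRed ratio, PSI derived from sequencing read proportions per bin multiplied by bin number.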

Variant | protein stability index
YHIYVPLEEEIERNKESPVFAPVY [A6P] | 1.99
YHIYVFLEEEIERNKESPVFAPVY [A6F] | 3.88
YHIYVQLEEEIERNKESPVFAPVY [A6Q] | 2.42
YHIYVMLEEEIERNKESPVFAPVY [A6M] | 2
YHIYVKLEEEIERNKESPVFAPVY [A6K] | 2.42
YHIYVYLEEEIERNKESPVFAPVY [A6Y] | 2.62
YHIYVVLEEEIERNKESPVFAPVY [A6V] | 3.22
YHIYVLLEEEIERNKESPVFAPVY [A6L] | 2.1
YHIYVSLEEEIERNKESPVFAPVY [A6S] | 1.74
YHIYVNLEEEIERNKESPVFAPVY [A6N] | 1.59
YHIYVDLEEEIERNKESPVFAPVY [A6D] | 1.81
YHIYVELEEEIERNKESPVFAPVY [A6E] | 1.88
YHIYVILEEEIERNKESPVFAPVY [A6I] | 2.02
YHIYVCLEEEIERNKESPVFAPVY [A6C] | 1.64
YHIYVTLEEEIERNKESPVFAPVY [A6T] | 1.82
YHIYVRLEEEIERNKESPVFAPVY [A6R] | 1.7
YHIYVWLEEEIERNKESPVFAPVY [A6W] | 2.2
YHIYVHLEEEIERNKESPVFAPVY [A6H] | 3.14
YHIYVACEEEIERNKESPVFAPVY [L7C] | 2.75
YHIYVASEEEIERNKESPVFAPVY [L7S] | 1.56
YHIYVAEEEEIERNKESPVFAPVY [L7E] | 1.76
YHIYVANEEEIERNKESPVFAPVY [L7N] | 1.88
YHIYVAPEEEIERNKESPVFAPVY [L7P] | 1.59
YHIYVAREEEIERNKESPVFAPVY [L7R] | 1.67

Variant | protein stability index
YHIYVAGEEEIERNKESPVFAPVY [L7G] | 2.48
YHIYVAHEEEIERNKESPVFAPVY [L7H] | 1.49
YHIYVAYEEEIERNKESPVFAPVY [L7Y] | 2.02
YHIYVAKEEEIERNKESPVFAPVY [L7K] | 2.2
YHIYVAMEEEIERNKESPVFAPVY [L7M] | 1.62
YHIYVAQEEEIERNKESPVFAPVY [L7Q] | 2.16
YHIYVAIEEEIERNKESPVFAPVY [L7I] | 1.76
YHIYVAFEEEIERNKESPVFAPVY [L7F] | 1.97
YHIYVATEEEIERNKESPVFAPVY [L7T] | 1.88
YHIYVAWEEEIERNKESPVFAPVY [L7W] | 2.2
YHIYVAVEEEIERNKESPVFAPVY [L7V] | 2.93
YHIYVAAEEEIERNKESPVFAPVY [L7A] | 2.34
YHIYVADEEEIERNKESPVFAPVY [L7D] | 2.03
YHIYVALEENIERNKESPVFAPVY [E10N] | 3.21
YHIYVALEECIERNKESPVFAPVY [E10C] | 1.93
YHIYVALEESIERNKESPVFAPVY [E10S] | 2.81
YHIYVALEEVIERNKESPVFAPVY [E10V] | 1.92
YHIYVALEEFIERNKESPVFAPVY [E10F] | 1.78
YHIYVALEEWIERNKESPVFAPVY [E10W] | 1.26
YHIYVALEEDIERNKESPVFAPVY [E10D] | 2.93
YHIYVALEEGIERNKESPVFAPVY [E10G] | 1.54
YHIYVALEETIERNKESPVFAPVY [E10T] | 2.83
YHIYVALEEIIERNKESPVFAPVY [E10I] | 1.74
YHIYVALEEKIERNKESPVFAPVY [E10K] | 1.99

Variant | protein stability index
YHIYVALEEHIERNKESPVFAPVY [E10H] | 1.97
YHIYVALEEAIERNKESPVFAPVY [E10A] | 2.59
YHIYVALEERIERNKESPVFAPVY [E10R] | 1.56
YHIYVALEEYIERNKESPVFAPVY [E10Y] | 2
YHIYVALEEMIERNKESPVFAPVY [E10M] | 1.77
YHIYVALEELIERNKESPVFAPVY [E10L] | 2.27
YHIYVALEEQIERNKESPVFAPVY [E10Q] | 2.7
YHIYDALEEEIERNKESPVFAPVY [V5D] | 4.82
YHIYRALEEEIERNKESPVFAPVY [V5R] | 3.13
YHIYFALEEEIERNKESPVFAPVY [V5F] | 1.63
YHIYLALEEEIERNKESPVFAPVY [V5L] | 2.29
YHIYHALEEEIERNKESPVFAPVY [V5H] | 2.34
YHIYCALEEEIERNKESPVFAPVY [V5C] | 1.79
YHIYMALEEEIERNKESPVFAPVY [V5M] | 2.79
YHIYSALEEEIERNKESPVFAPVY [V5S] | 2.67
YHIYEALEEEIERNKESPVFAPVY [V5E] | 4.87
YHIYGALEEEIERNKESPVFAPVY [V5G] | 2.23
YHIYNALEEEIERNKESPVFAPVY [V5N] | 3.59
YHIYQALEEEIERNKESPVFAPVY [V5Q] | 3.94
YHIYTALEEEIERNKESPVFAPVY [V5T] | 3.39
YHIYPALEEEIERNKESPVFAPVY [V5P] | 2.43
YHIYIALEEEIERNKESPVFAPVY [V5I] | 1.94
YHIYWALEEEIERNKESPVFAPVY [V5W] | 2.12
YHIYAALEEEIERNKESPVFAPVY [V5A] | 3.79

Variant | protein stability index
YHIYKALEEEIERNKESPVFAPVY [V5K] | 3.47
YHIYYALEEEIERNKESPVFAPVY [V5Y] | 1.47
YHIYVALYEEIERNKESPVFAPVY [E8Y] | 1.05
YHIYVALPEEIERNKESPVFAPVY [E8P] | 2.49
YHIYVALIEEIERNKESPVFAPVY [E8I] | 2.51
YHIYVALVEEIERNKESPVFAPVY [E8V] | 2.3
YHIYVALREEIERNKESPVFAPVY [E8R] | 2.42
YHIYVALLEEIERNKESPVFAPVY [E8L] | 2.49
YHIYVALMEEIERNKESPVFAPVY [E8M] | 4.06
YHIYVALKEEIERNKESPVFAPVY [E8K] | 2.07
YHIYVALFEEIERNKESPVFAPVY [E8F] | 2.43
YHIYVALDEEIERNKESPVFAPVY [E8D] | 1.53
YHIYVALAEEIERNKESPVFAPVY [E8A] | 2.31
YHIYVALNEEIERNKESPVFAPVY [E8N] | 1.94
YHIYVALSEEIERNKESPVFAPVY [E8S] | 3.74
YHIYVALGEEIERNKESPVFAPVY [E8G] | 3.48
YHIYVALHEEIERNKESPVFAPVY [E8H] | 2.18
YHIYVALQEEIERNKESPVFAPVY [E8Q] | 3.23
YHIYVALTEEIERNKESPVFAPVY [E8T] | 2.19
YHIEVALEEEIERNKESPVFAPVY [Y4E] | 2.09
YHIMVALEEEIERNKESPVFAPVY [Y4M] | 1.36
YHIKVALEEEIERNKESPVFAPVY [Y4K] | 2.41
